# Experimental data published in patent US20260242419A1, “A CYCLIC PEPTIDE FOR TRAPPING INTERLEUKIN-1 BETA” (Merck Sharp & Dohme LLC, priority 2023, published 2026).
# Starred links: 1 amine or outer side, 2 acyl side, 3 side chain; linkers in the order of their positions; H or OH if unused. Non-standard residues stand in square brackets, D forms with d. PyrimAla4Ph4CO2H = 4-[5-[(2S)-2-amino-2-carboxy-ethyl]pyrimidin-2-yl]benzoic acid, O=C([C@H](Cc1cnc(-c2ccc(C(=O)[*:3])cc2)nc1)N[*:1])[*:2]; Phe(4-(5-CO2H-2-pyrimidyl)) = N[C@@H](Cc1ccc(-c2ncc(C(=O)O)cn2)cc1)C(=O)O; Phe(4-(4-Ac-piperazinyl)) = CC(=O)N1CCN(c2ccc(C[C@H](N)C(=O)O)cc2)CC1; dPro(4R-(4-pyridylmethyl)) = O=C(O)[C@H]1C[C@@H](Cc2ccncc2)CN1; Trp(βS-Me,4-F) = C[C@@H](c1c[nH]c2cccc(F)c12)[C@H](N)C(=O)O; Bip(4'-COOH) = N[C@@H](Cc1ccc(-c2ccc(C(=O)O)cc2)cc1)C(=O)O; Ala(1-bicyclo(1.1.1)pentyl) = N[C@@H](CC12CC(C1)C2)C(=O)O; dPro(4R-Bzl(4-F)) = O=C(O)[C@H]1C[C@@H](Cc2ccc(F)cc2)CN1; Ala(pyrimidin-5-yl) = N[C@@H](Cc1cncnc1)C(=O)O; Phe(4-COOH) = N[C@@H](Cc1ccc(C(=O)O)cc1)C(=O)O; Pro(cis-4-F) = O=C(O)[C@@H]1C[C@H](F)CN1; 4Pal = N[C@@H](Cc1ccncc1)C(=O)O; Dab = NCC[C@H](N)C(=O)O; Dap = NC[C@H](N)C(=O)O; Aib = CC(C)(N)C(=O)O
# B1: SEQ ID NO: 84 (peptide)
# peptide: cyclo([Phe(4-(5-CO2H-2-pyrimidyl))][Ala(1-bicyclo(1.1.1)pentyl)][Phe(4-COOH)]G[Pro(cis-4-F)][Trp(βS-Me,4-F)][Aib]SW[Aib][4Pal]Q[Dab]G[dPro(4R-Bzl(4-F))])
# SMILES: C[C@@H](c1c[nH]c2cccc(F)c12)[C@@H]1NC(=O)[C@@H]2C[C@H](F)CN2C(=O)CNC(=O)[C@H](Cc2ccc(C(=O)O)cc2)NC(=O)[C@H](CC23CC(C2)C3)NC(=O)[C@H](Cc2ccc(-c3ncc(C(=O)O)cn3)cc2)NC(=O)[C@H]2C[C@@H](Cc3ccc(F)cc3)CN2C(=O)CNC(=O)[C@H](CCN)NC(=O)[C@H](CCC(N)=O)NC(=O)[C@H](Cc2ccncc2)NC(=O)C(C)(C)NC(=O)[C@H](Cc2c[nH]c3ccccc23)NC(=O)[C@H](CO)NC(=O)C(C)(C)NC1=O
# B2: SEQ ID NO: 91 (peptide)
# peptide: cyclo([PyrimAla4Ph4CO2H][4Pal][Phe(4-COOH)]G[Pro(cis-4-F)][Trp(βS-Me,4-F)][Aib]EW[Aib][Ala(pyrimidin-5-yl)]Q[Dab]G[dPro(4R-Bzl(4-F))])
# SMILES: C[C@@H](c1c[nH]c2cccc(F)c12)[C@@H]1NC(=O)[C@@H]2C[C@H](F)CN2C(=O)CNC(=O)[C@H](Cc2ccc(C(=O)O)cc2)NC(=O)[C@H](Cc2ccncc2)NC(=O)[C@H](Cc2cnc(-c3ccc(C(=O)O)cc3)nc2)NC(=O)[C@H]2C[C@@H](Cc3ccc(F)cc3)CN2C(=O)CNC(=O)[C@H](CCN)NC(=O)[C@H](CCC(N)=O)NC(=O)[C@H](Cc2cncnc2)NC(=O)C(C)(C)NC(=O)[C@H](Cc2c[nH]c3ccccc23)NC(=O)[C@H](CCC(=O)O)NC(=O)C(C)(C)NC1=O
# B3: SEQ ID NO: 92 (peptide)
# peptide: cyclo([PyrimAla4Ph4CO2H][Ala(1-bicyclo(1.1.1)pentyl)][Phe(4-COOH)]G[Pro(cis-4-F)][Trp(βS-Me,4-F)][Aib]EW[Aib][Ala(pyrimidin-5-yl)]Q[Dab]G[dPro(4R-Bzl(4-F))])
# SMILES: C[C@@H](c1c[nH]c2cccc(F)c12)[C@@H]1NC(=O)[C@@H]2C[C@H](F)CN2C(=O)CNC(=O)[C@H](Cc2ccc(C(=O)O)cc2)NC(=O)[C@H](CC23CC(C2)C3)NC(=O)[C@H](Cc2cnc(-c3ccc(C(=O)O)cc3)nc2)NC(=O)[C@H]2C[C@@H](Cc3ccc(F)cc3)CN2C(=O)CNC(=O)[C@H](CCN)NC(=O)[C@H](CCC(N)=O)NC(=O)[C@H](Cc2cncnc2)NC(=O)C(C)(C)NC(=O)[C@H](Cc2c[nH]c3ccccc23)NC(=O)[C@H](CCC(=O)O)NC(=O)C(C)(C)NC1=O
# B4: SEQ ID NO: 82 (peptide)
# peptide: cyclo([Phe(4-(5-CO2H-2-pyrimidyl))][Ala(1-bicyclo(1.1.1)pentyl)][Phe(4-COOH)]G[Pro(cis-4-F)][Trp(βS-Me,4-F)][Aib]EW[Aib][Ala(pyrimidin-5-yl)]Q[Dab]G[dPro(4R-Bzl(4-F))])
# SMILES: C[C@@H](c1c[nH]c2cccc(F)c12)[C@@H]1NC(=O)[C@@H]2C[C@H](F)CN2C(=O)CNC(=O)[C@H](Cc2ccc(C(=O)O)cc2)NC(=O)[C@H](CC23CC(C2)C3)NC(=O)[C@H](Cc2ccc(-c3ncc(C(=O)O)cn3)cc2)NC(=O)[C@H]2C[C@@H](Cc3ccc(F)cc3)CN2C(=O)CNC(=O)[C@H](CCN)NC(=O)[C@H](CCC(N)=O)NC(=O)[C@H](Cc2cncnc2)NC(=O)C(C)(C)NC(=O)[C@H](Cc2c[nH]c3ccccc23)NC(=O)[C@H](CCC(=O)O)NC(=O)C(C)(C)NC1=O
# B5: SEQ ID NO: 88 (peptide)
# peptide: cyclo([Phe(4-(5-CO2H-2-pyrimidyl))][Ala(1-bicyclo(1.1.1)pentyl)][Phe(4-COOH)]G[Pro(cis-4-F)][Trp(βS-Me,4-F)][Aib]AW[Aib][4Pal]Q[Dab]G[dPro(4R-(4-pyridylmethyl))])
# SMILES: C[C@@H]1NC(=O)C(C)(C)NC(=O)[C@H]([C@@H](C)c2c[nH]c3cccc(F)c23)NC(=O)[C@@H]2C[C@H](F)CN2C(=O)CNC(=O)[C@H](Cc2ccc(C(=O)O)cc2)NC(=O)[C@H](CC23CC(C2)C3)NC(=O)[C@H](Cc2ccc(-c3ncc(C(=O)O)cn3)cc2)NC(=O)[C@H]2C[C@@H](Cc3ccncc3)CN2C(=O)CNC(=O)[C@H](CCN)NC(=O)[C@H](CCC(N)=O)NC(=O)[C@H](Cc2ccncc2)NC(=O)C(C)(C)NC(=O)[C@H](Cc2c[nH]c3ccccc23)NC1=O
# B6: SEQ ID NO: 93 (peptide)
# peptide: cyclo([Bip(4'-COOH)][Ala(1-bicyclo(1.1.1)pentyl)][Phe(4-COOH)]G[Pro(cis-4-F)][Trp(βS-Me,4-F)][Aib]EW[Aib][Dap]Q[Dab]G[dPro(4R-(4-pyridylmethyl))])
# SMILES: C[C@@H](c1c[nH]c2cccc(F)c12)[C@@H]1NC(=O)[C@@H]2C[C@H](F)CN2C(=O)CNC(=O)[C@H](Cc2ccc(C(=O)O)cc2)NC(=O)[C@H](CC23CC(C2)C3)NC(=O)[C@H](Cc2ccc(-c3ccc(C(=O)O)cc3)cc2)NC(=O)[C@H]2C[C@@H](Cc3ccncc3)CN2C(=O)CNC(=O)[C@H](CCN)NC(=O)[C@H](CCC(N)=O)NC(=O)[C@H](CN)NC(=O)C(C)(C)NC(=O)[C@H](Cc2c[nH]c3ccccc23)NC(=O)[C@H](CCC(=O)O)NC(=O)C(C)(C)NC1=O
# B7: SEQ ID NO: 87 (peptide)
# peptide: cyclo([Phe(4-(5-CO2H-2-pyrimidyl))][Ala(1-bicyclo(1.1.1)pentyl)][Phe(4-COOH)]G[Pro(cis-4-F)][Trp(βS-Me,4-F)][Aib]AW[Aib][Ala(pyrimidin-5-yl)]Q[Dab]G[dPro(4R-(4-pyridylmethyl))])
# SMILES: C[C@@H]1NC(=O)C(C)(C)NC(=O)[C@H]([C@@H](C)c2c[nH]c3cccc(F)c23)NC(=O)[C@@H]2C[C@H](F)CN2C(=O)CNC(=O)[C@H](Cc2ccc(C(=O)O)cc2)NC(=O)[C@H](CC23CC(C2)C3)NC(=O)[C@H](Cc2ccc(-c3ncc(C(=O)O)cn3)cc2)NC(=O)[C@H]2C[C@@H](Cc3ccncc3)CN2C(=O)CNC(=O)[C@H](CCN)NC(=O)[C@H](CCC(N)=O)NC(=O)[C@H](Cc2cncnc2)NC(=O)C(C)(C)NC(=O)[C@H](Cc2c[nH]c3ccccc23)NC1=O
# B8: SEQ ID NO: 89 (peptide)
# peptide: cyclo([Phe(4-(5-CO2H-2-pyrimidyl))][Ala(1-bicyclo(1.1.1)pentyl)][Phe(4-COOH)]G[Pro(cis-4-F)][Trp(βS-Me,4-F)][Aib]SW[Aib][4Pal]Q[Dab]G[dPro(4R-(4-pyridylmethyl))])
# SMILES: C[C@@H](c1c[nH]c2cccc(F)c12)[C@@H]1NC(=O)[C@@H]2C[C@H](F)CN2C(=O)CNC(=O)[C@H](Cc2ccc(C(=O)O)cc2)NC(=O)[C@H](CC23CC(C2)C3)NC(=O)[C@H](Cc2ccc(-c3ncc(C(=O)O)cn3)cc2)NC(=O)[C@H]2C[C@@H](Cc3ccncc3)CN2C(=O)CNC(=O)[C@H](CCN)NC(=O)[C@H](CCC(N)=O)NC(=O)[C@H](Cc2ccncc2)NC(=O)C(C)(C)NC(=O)[C@H](Cc2c[nH]c3ccccc23)NC(=O)[C@H](CO)NC(=O)C(C)(C)NC1=O
# B9: SEQ ID NO: 9 (peptide)
# peptide: cyclo([Bip(4'-COOH)][4Pal][Phe(4-COOH)]G[Pro(cis-4-F)][Trp(βS-Me,4-F)][Aib]EW[Aib][Ala(pyrimidin-5-yl)]QKG[dPro(4R-Bzl(4-F))])
# SMILES: C[C@@H](c1c[nH]c2cccc(F)c12)[C@@H]1NC(=O)[C@@H]2C[C@H](F)CN2C(=O)CNC(=O)[C@H](Cc2ccc(C(=O)O)cc2)NC(=O)[C@H](Cc2ccncc2)NC(=O)[C@H](Cc2ccc(-c3ccc(C(=O)O)cc3)cc2)NC(=O)[C@H]2C[C@@H](Cc3ccc(F)cc3)CN2C(=O)CNC(=O)[C@H](CCCCN)NC(=O)[C@H](CCC(N)=O)NC(=O)[C@H](Cc2cncnc2)NC(=O)C(C)(C)NC(=O)[C@H](Cc2c[nH]c3ccccc23)NC(=O)[C@H](CCC(=O)O)NC(=O)C(C)(C)NC1=O
# B10: SEQ ID NO: 83 (peptide)
# peptide: cyclo([Phe(4-(5-CO2H-2-pyrimidyl))][Ala(1-bicyclo(1.1.1)pentyl)][Phe(4-COOH)]G[Pro(cis-4-F)][Trp(βS-Me,4-F)][Aib]SW[Aib][Ala(pyrimidin-5-yl)]Q[Dab]G[dPro(4R-Bzl(4-F))])
# SMILES: C[C@@H](c1c[nH]c2cccc(F)c12)[C@@H]1NC(=O)[C@@H]2C[C@H](F)CN2C(=O)CNC(=O)[C@H](Cc2ccc(C(=O)O)cc2)NC(=O)[C@H](CC23CC(C2)C3)NC(=O)[C@H](Cc2ccc(-c3ncc(C(=O)O)cn3)cc2)NC(=O)[C@H]2C[C@@H](Cc3ccc(F)cc3)CN2C(=O)CNC(=O)[C@H](CCN)NC(=O)[C@H](CCC(N)=O)NC(=O)[C@H](Cc2cncnc2)NC(=O)C(C)(C)NC(=O)[C@H](Cc2c[nH]c3ccccc23)NC(=O)[C@H](CO)NC(=O)C(C)(C)NC1=O
# B11: SEQ ID NO: 85 (peptide)
# peptide: cyclo([Phe(4-(5-CO2H-2-pyrimidyl))][4Pal][Phe(4-COOH)]G[Pro(cis-4-F)][Trp(βS-Me,4-F)][Aib]AW[Aib][4Pal]Q[Dab]G[dPro(4R-(4-pyridylmethyl))])
# SMILES: C[C@@H]1NC(=O)C(C)(C)NC(=O)[C@H]([C@@H](C)c2c[nH]c3cccc(F)c23)NC(=O)[C@@H]2C[C@H](F)CN2C(=O)CNC(=O)[C@H](Cc2ccc(C(=O)O)cc2)NC(=O)[C@H](Cc2ccncc2)NC(=O)[C@H](Cc2ccc(-c3ncc(C(=O)O)cn3)cc2)NC(=O)[C@H]2C[C@@H](Cc3ccncc3)CN2C(=O)CNC(=O)[C@H](CCN)NC(=O)[C@H](CCC(N)=O)NC(=O)[C@H](Cc2ccncc2)NC(=O)C(C)(C)NC(=O)[C@H](Cc2c[nH]c3ccccc23)NC1=O
# Molecular target: Recombinant human IL-1β (BioLegend 579404) (human, UniProt P01584 117-269)
# Assay: cell-based or functional assay
row,Binder,MRC5 IC50
1,B1,0.047 nM
2,B2,0.054 nM
3,B3,0.07 nM
4,B4,0.054 nM
5,B5,0.083 nM
6,B6,0.059 nM
7,B7,0.087 nM
8,"cyclo([Phe(4-(5-CO2H-2-pyrimidyl))][Ala(1-bicyclo(1.1.1)pentyl)][Phe(4-COOH)]G[Pro(cis-4-F)][Trp(βS-Me,4-F)][Aib]EW[Aib][4Pal]Q[Dab]G[dPro(4R-(4-pyridylmethyl))]) [SEQ ID NO: 86]",0.075 nM
9,B8,0.045 nM
10,B9,0.028 nM
11,B10,0.045 nM
12,"cyclo([Phe(4-(4-Ac-piperazinyl))][Ala(1-bicyclo(1.1.1)pentyl)][Phe(4-COOH)]G[Pro(cis-4-F)][Trp(βS-Me,4-F)][Aib]EW[Aib][4Pal]Q[Dab]G[dPro(4R-Bzl(4-F))]) [SEQ ID NO: 90]",0.064 nM
13,B11,0.074 nM
